Target: T1, SARS-CoV-2 spike protein (full S1 and S2 regions, furin recognition sequence removed, histidine tag) (SARS-CoV-2, UniProt P0DTC2 14-1273)
T1 construct: whole, on cells; also called Exo-S; spike protein positive exosome
Assay: competition ELISA: ACE2 on plate, Exo-S with titrated antibody; competitor ACE2

B1: anti-spike protein monoclonal antibody clone A1-1C7 (antibody, V domains shown)
VH: EVQLQQSGTELVTPGASVKLSCTASGFNIKDTYVQWVKQRPEQGLEWIGRIDPASDNTFYASKFQGKASLSSDTSSNTAYMQLSSLTSGDTAVYYCSTYFSNFYYWGQGTPLTVSS
VL: DIQMTQSPASLSASVGDTVTITCGASENIYGALNWYQRKKGKSPQLLIYGATNLADGMSSRFSGRGSGRQYFLKISSLHPDDVATYYCQNVLSVPWTFGGGTKLEIK
notes: also called MAb2B (related to clone A1-1C7)
For B1, the IC50 was 4.8 ng/mL.
